The values below come from publication PMC11044049 (The Journal of Biological Chemistry, 2024).

Data set [1] deals with the molecule itself. Briefly: cryo-EM structure; 2.5 μM clamp loader and 2.2 μM sliding clamp, 1 mM ADP·BeFx, cross-linked with 1 mM BS3; 25 mM HEPES-NaOH pH 8.0, 200 mM NaCl, 4 mM MgCl2, 1 mM TCEP; Semi-Open and Fully-Open states.
Data set [2] deals with the molecule itself. Briefly: reconstitution and co-elution on anion exchange (HiTrap Q); purified γ (WT or K141A), δ and δ′ (WT or K130A) combined 2.5:1:1, dialysed into Buffer Q-A (50 mM Tris pH 7.5, 50 mM NaCl, 10% glycerol, 2 mM DTT) overnight at 4 °C, eluted from a HiTrap Q column with a NaCl gradient; fractions with the intact complex pooled.

Changes are numbered by the printed parent chain. Numbers in names are those of the source.

B1: γ subunit of the E. coli clamp loader (residues 1-373) (domain or fragment, UniProt P06710 1-373, looked up)
chain: MSYQVLARKWRPQTFADVVGQEHVLTALANGLSLGRIHHAYLFSGTRGVGKTSIARLLAKGLNCETGITATPCGVCDNCREIEQGRFVDLIEIDAASRTKVEDTRDLLDNVQYAPARGRFKVYLIDEVHMLSRHSFNALLKTLEEPPEHVKFLLATTDPQKLPVTILSRCLQFHLKALDVEQIRHQLEHILNEEHIAHEPRALQLLARAAEGSLRDALSLTDQAIASGDGQVSTQAVSAMLGTLDDDQALSLVEAMVEANGERVMALINEAAARGIEWEALLVEMLGLLHRIAMVQLSPAALGNDMAAIELRMRELARTIPPTDIQLYYQTLLIGRKELPYAPDRRMGVEMTLLRALAFHPRMPLPEPEVPRQ
notes: γ subunit of the E. coli clamp loader, truncated form, residues 1-373; Stands for the single γ subunits within the γ-complex; also called γ protein; B, C and D subunits; source: E. coli BLR21(DE3), purified (HisTrap, Prescission Protease, HisTrap flowthrough); not shown: His6, N-terminal, cleaved
In the case of B1, the binding result in data set [1] is on record as “binds”.

B2: γ-K141A (domain or fragment, E. coli, UniProt P06710 1-373, looked up)
chain: B1 chain with K141A
notes: γ subunit of the E. coli clamp loader with K141A; insert bought from Twist Bioscience; the range 1-373 is stated for the γ subunit in general; The limits 1-373 are not repeated for the mutant itself; source: E. coli BLR21(DE3), purified (Nickel NTA agarose, Prescission Protease, HisTrap); not shown: His6, N-terminal, cleaved
As for B2, in data set [2], the binding result was “binds”.
